Assay results: publication PMC8079448, “Structure of the SWI/SNF complex bound to the nucleosome and insights into the functional modularity” (Cell Discovery, 2021)
Each block holds one binder with its values, some of them ahead of it.

Target: T1, Snf5 (wild type, subunit of the recombinant SWI/SNF complex) (yeast, UniProt P18480 1-905)
T1 construct: Snf5, yeast, wild type; also called WT; source: overexpressed in E. coli (modified EcoExpress system), in the reconstituted complex
Assay: cryo-EM structure; recombinant yeast SWI/SNF complex in complex with the mononucleosome; overall resolution 6.9 Å, local 3.1 Å at the nucleosome bound with the FH of Snf5, local 3.6 Å at the SRM
Details: both partners purified

T1 sequence (P18480 whole entry, one chain of several): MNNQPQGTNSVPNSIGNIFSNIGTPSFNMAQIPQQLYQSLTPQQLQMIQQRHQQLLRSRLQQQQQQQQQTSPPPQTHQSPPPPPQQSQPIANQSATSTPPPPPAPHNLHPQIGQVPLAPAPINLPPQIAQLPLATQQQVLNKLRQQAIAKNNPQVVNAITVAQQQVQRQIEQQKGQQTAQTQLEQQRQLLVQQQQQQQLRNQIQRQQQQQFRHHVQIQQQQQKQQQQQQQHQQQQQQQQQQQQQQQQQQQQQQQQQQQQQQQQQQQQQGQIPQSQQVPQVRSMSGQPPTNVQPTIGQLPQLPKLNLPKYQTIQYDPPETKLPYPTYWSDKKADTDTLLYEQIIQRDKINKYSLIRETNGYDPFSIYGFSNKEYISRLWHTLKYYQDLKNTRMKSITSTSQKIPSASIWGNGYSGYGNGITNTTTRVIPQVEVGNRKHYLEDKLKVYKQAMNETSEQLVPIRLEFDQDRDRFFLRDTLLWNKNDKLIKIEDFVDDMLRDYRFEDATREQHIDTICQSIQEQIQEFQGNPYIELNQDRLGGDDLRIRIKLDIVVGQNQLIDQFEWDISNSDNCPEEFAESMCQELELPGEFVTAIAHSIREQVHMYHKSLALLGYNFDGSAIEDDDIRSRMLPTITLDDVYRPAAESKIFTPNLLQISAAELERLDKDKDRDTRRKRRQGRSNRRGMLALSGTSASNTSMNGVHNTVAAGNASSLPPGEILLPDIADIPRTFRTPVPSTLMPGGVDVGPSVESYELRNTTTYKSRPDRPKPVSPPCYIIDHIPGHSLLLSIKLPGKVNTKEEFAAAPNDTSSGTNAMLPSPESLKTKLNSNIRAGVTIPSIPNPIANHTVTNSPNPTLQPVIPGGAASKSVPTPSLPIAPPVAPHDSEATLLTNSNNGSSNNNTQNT

binding result: binds
B1: Swi3 (natural protein, yeast)
chain: MENTLGEGSTVNASVDVDQHGNDNNSDSNANAAVAGVANTDTAGEESQQQDESLKDEATVPNTRDAESEAITVTAKQQPTMQANKLDSQETPSTEESRAQNVFGQDNEDSDNLFGETESSVSNNEANTPSIPTNPVDNENNKPAIKEDSTIQDSNGDVKNMEDVKIQKEEEPENNTVIEGVKEESQPDENTKEMDEVEEDDEDDDQPMISPDNSIFGDTKSESKQLGNTSSVANTPSEIPDAHKAEQEDIIEKTESVDKKVDSGEERNEQEREIMNDHSKSANPKKTTITRVEPETFEIPQAHEIVIPSYSKWFNLEKIHSIEVQSLPEFFTNRIPSKTPEVYMRYRNFMVNSYRLNPNEYFSVTTARRNVSGDAAALFRLHKFLTKWGLINYQVDSKLLPKNIEPPLTSQYSTRHDAPRGLFPFESYKPSVQLPDMAKLKKMMNTSDSESTLYKYLKESKRKYDEITHPPSTTDDENGDKNDNGGKMNNEVSTSTSMTGDANLLEEGETSRPLKKVKILEQIDENWSKEDLQKLLKGIQEFGADWYKVAKNVGNKSPEQCILRFLQLPIEDKFLYGDGNGKGDNDNGLGPLKYAPHLPFSKSENPVLSTIAFLVGLVNPKTVQSMTQRAIQSAESIKSQKEEISDQKPIEHIKEGSEIAISSLGYRSHIFATNEERQMNFLTNELIRLQMEKLDAKLNHLKKLEKFMELERKTLERQQENLLIQRLNFNQNSSKIVNVLSKCLNLISDSNINNSSVAEKEEIRSQIDHFKSMLSKPETLSIGKNPFNKPNIETGENHNGQSISNENDVKPISIEAPQFYRYWSA
notes: Swi3, yeast; source: overexpressed in E. coli (modified EcoExpress system), in the reconstituted complex

binding result: binds
B2: Swp82 (natural protein, yeast)
chain: MLGEDEGNTVLEKGNNPSVKQGEVGAVFIVPKILIREHERVILKQILQILDQDELVQPPLDKFPYKKLELPKYIDELKTRDATNTSYKMIQLDAYGEKKVGSNGELFGGRHYLFNTFTFTAHMGVLLVLLQDVIKVLYQSNATHDEDEFIVQHDQILVMETSEEQTKFLAKNGVIPEESKGSFKYITARSAFVEFGASVIAGGQRIVDDYWESLAKKQNLSSHQRVFKLSTNLISKISLLRPSFQNNRISNANEISANTNNTCTISTSKFESQYPIVTEQPSAEIREAYIENFAKGEHISAIVPGQSISGTLELSAQFRVPRYHSKNSFQQALQMKAMDIPIGRHEELLAQYESQAPDGSASISLPNHIPSVNPSNKPIKRMLSSILDINVSSSKNKKSEENEMIKPMNKGQHKNNTSLNINGWKFESLPLKSAENSGKQQYYRGLPLYEKNTLLERLKQLTPNEIKELEHLHDAVFVNTGLQNVRKVRTKKWKKYWQYKAGIPIGLKRSQLDEFKNKYLKDVLAQTSVTTNFNEITNTDETITTKRVPNPNFLGNCNIKDFKPPYIYSHVNKVPQNVAGDKTAVKLDTEVKNTNANPVVATDPVAAKPDNLANFSNEVAMNN
notes: Swp82, yeast; source: overexpressed in E. coli (modified EcoExpress system), in the reconstituted complex
